In paper PMC10808242, “Antibodies from dengue patients with prior exposure to Japanese encephalitis virus are broadly neutralizing against Zika virus” (Communications Biology, 2024):

How the values were obtained:
[1] = biological target: ZIKV VLP with E T231A (Zika virus); assay: ELISA
[2] = biological target: ZIKV VLP with E R193A (Zika virus); assay: ELISA
[3] = biological target: DENV-1 virus-like particle (prM/E VLP) (dengue virus serotype 1)
[4] = biological target: T1, mature form virus-like particles of dengue virus serotype 2 (mD2VLP) (Dengue virus type 2, strain 16681 …, UniProt A0A173DS53); assay: cryo-EM structure; conditions: both partners purified
T1 construct: also called mature DENV-2 VLP; pVD2i-C18S; copies: 60 +

| Binder | percent loss of binding relative to ZIKV WT VLP [1] [%] | percent loss of binding relative to ZIKV WT VLP [2] [%] | FRμNT50, neutralisation of the prototype DENV-1 strain on Vero cells [3] [µg/mL] | stoichiometry N [4] |
| --- | --- | --- | --- | --- |
| huMAb K5 expressed as full-length human IgG1 (K5-IgG1) (antibody, V domains shown) VH: EVQLLESGAEVKKPGSSVKVSCQASGDTFSNSDINWVRQAPGQGLEWMGGIIPAYDTTNYARTFQGRVAITADKSTSTVYMELSRLRSEDTAVYYCATDQRDYFGLGNHFNAQHFWGQGTLVTVSS VL: AIRMTQTPLSLSASVGDRVTITCRASQSISNYLNWYQQRPGKAPNLLIYTASNLHSGVPSRFSGSGSGTDFTLTISSLQPEDFATYYCQQSYSGGYTFGQGPSWEIK | 70 | 70 | 0.771 | – |
| huMAb K8b expressed as full-length human IgG1 (K8b-IgG1) (antibody, V domains shown, also called pVCHIg-hG1-K8b + pVCLIg-hκ-K8b) VH: QVQLVQPGAEVVKPGASVKLSCKTSGYTFTSNWMHWVKQAPGQGLEWIGEIDPSDSYTNYNQNFQGKAKLTVDKSTSTAYMEVSSLRSDDTAVYYCARGSNPYYYAMDYWGQGTSVTVSS VL: EIVMMQSPLTLSLSPGERATLSCRASQSVSSNYLAWYQQRPGQAPRLLIYGVSSRATGVPVRFSGSGSGTDFTLTISRLEPEDFAVYYCQHYGGSLSWTFGQGTKVEIK | – | – | – | 60 F(ab) arms per VLP of 60 E proteins |
